Source: article PMC8479045, “Assembly defects of human tRNA splicing endonuclease contribute to impaired pre-tRNA processing in pontocerebellar hypoplasia” (Nature Communications, 2021)
Several values for one entry are separate records, joined by “and”; a condition that tells them apart may be missing. Identical values can stand only once.

Legend:
[1] = system: TSEN2 H377A (inactive);TSEN34 H255A (inactive);TSEN15;TSEN54 (Homo sapiens;Homo sapiens;Homo sapiens;Homo sapiens); experiment: fluorescence anisotropy; details: FA: 50 mM HEPES-NaOH pH 7.4, 100 mM NaCl, 22 °C, 70 nM Cy5-RNA; EMSA: same buffer + 1 mM DTT, 4% glycerol, on ice, 10 nM RNA; pull-down: 50 mM HEPES-NaOH pH …
[2] = system: TSEN2 H377A (inactive);TSEN34 H255A (inactive);TSEN15;TSEN54 (Homo sapiens;Homo sapiens;Homo sapiens;Homo sapiens); experiment: competition (fluorescence anisotropy); details: competitor of 3'-Cy5 pre-tRNA-Phe; FA: 50 mM HEPES-NaOH pH 7.4, 100 mM NaCl, 22 °C, 70 nM Cy5-RNA; EMSA: same buffer + 1 mM DTT, 4% glycerol, on ice, 10 nM RNA; pull-down: 50 mM HEPES-NaOH pH …
[3] = biological target: the molecule itself; experiment: SEC-MALS; 330 µg TSEN15–34 complex at 1.65 mg/ml, Superdex 200 Increase, 25 mM HEPES-NaOH pH 7.5, 250 mM NaCl; heterodimer to dimer of heterodimers at high protein concentration
[4] = biological target: T1, heterotetrameric tRNA splicing endonuclease TSEN (TSEN2–15–34–54) (human, UniProt Q8NCE0 1-465; Q8WW01 1-171; Q9BSV6 1-310; Q7Z6J9 1-526, high degree of phosphorylation (sites not given)); experiment: native MS; purified wt TSEN (1.09 mg/ml) and wt TSEN/CLP1 (1.88 mg/ml) from insect cells, exchanged into 200 mM ammonium acetate pH 7.5; Q-ToF modified for high-mass complexes; details: both partners purified
T1 construct: human TSEN2, open reading frame, UniProtKB Q8NCE0; human TSEN15, open reading frame, UniProtKB Q8WW01; human TSEN34, open reading frame, UniProtKB Q9BSV6; human TSEN54, open reading frame, UniProtKB Q7Z6J9; His tags were removed with TEV protease; also called tetrameric TSEN; TSEN2–15–34–54 heterotetramer; source: Sf21 insect cells (baculovirus), co-expressed (with CLP1), purified (Ni-NTA, …)
T1 sequence (looked up) 1: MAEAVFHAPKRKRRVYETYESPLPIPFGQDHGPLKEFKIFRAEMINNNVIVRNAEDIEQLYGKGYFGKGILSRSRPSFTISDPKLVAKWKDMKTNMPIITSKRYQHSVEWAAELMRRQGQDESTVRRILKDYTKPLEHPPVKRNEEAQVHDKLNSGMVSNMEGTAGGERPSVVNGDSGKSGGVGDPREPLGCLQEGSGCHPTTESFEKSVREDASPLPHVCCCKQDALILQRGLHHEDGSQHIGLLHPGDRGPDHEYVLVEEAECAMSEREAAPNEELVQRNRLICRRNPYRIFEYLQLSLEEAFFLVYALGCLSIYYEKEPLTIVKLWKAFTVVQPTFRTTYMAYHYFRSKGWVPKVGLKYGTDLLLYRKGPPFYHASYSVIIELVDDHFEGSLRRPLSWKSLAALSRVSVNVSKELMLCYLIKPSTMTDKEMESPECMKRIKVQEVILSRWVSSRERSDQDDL
T1 sequence (looked up) 2: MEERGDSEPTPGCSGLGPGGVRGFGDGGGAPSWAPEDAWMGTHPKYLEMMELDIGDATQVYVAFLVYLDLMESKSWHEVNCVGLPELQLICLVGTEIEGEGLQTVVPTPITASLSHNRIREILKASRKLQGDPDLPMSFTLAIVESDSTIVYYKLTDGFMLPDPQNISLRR
T1 sequence (looked up) 3: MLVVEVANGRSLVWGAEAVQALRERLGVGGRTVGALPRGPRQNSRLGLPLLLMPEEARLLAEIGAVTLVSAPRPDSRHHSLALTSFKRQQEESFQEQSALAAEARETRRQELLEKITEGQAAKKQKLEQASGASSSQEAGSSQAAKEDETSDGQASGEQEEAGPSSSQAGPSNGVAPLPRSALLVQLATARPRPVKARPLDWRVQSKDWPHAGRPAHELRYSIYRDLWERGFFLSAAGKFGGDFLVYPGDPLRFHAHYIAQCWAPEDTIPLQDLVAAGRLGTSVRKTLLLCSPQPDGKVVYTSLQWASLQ
T1 sequence (looked up) 4: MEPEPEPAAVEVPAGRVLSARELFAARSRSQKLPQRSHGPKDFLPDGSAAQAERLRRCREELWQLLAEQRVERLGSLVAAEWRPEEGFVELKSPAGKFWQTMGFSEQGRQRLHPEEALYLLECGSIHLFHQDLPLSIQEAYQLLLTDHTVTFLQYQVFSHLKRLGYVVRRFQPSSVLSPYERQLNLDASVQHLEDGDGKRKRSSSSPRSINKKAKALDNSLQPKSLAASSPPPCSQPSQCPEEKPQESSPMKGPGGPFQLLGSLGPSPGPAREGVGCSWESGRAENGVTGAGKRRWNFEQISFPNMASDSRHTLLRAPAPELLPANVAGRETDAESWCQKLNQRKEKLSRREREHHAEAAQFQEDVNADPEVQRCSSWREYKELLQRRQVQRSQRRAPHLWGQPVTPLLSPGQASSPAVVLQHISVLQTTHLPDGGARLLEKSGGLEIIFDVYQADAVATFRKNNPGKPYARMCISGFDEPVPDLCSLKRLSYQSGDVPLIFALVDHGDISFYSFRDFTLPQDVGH

Q: For S.c. mature tRNA-Phe(GAA), 3'-Cy5, which Kd [1] is on record?
A: 149 nM

Q: With S.c. pre-tRNA-Phe(GAA), 3'-Cy5 as the molecule, how does the Kd [1] read?
A: 173 nM

Q: For S.c. pre-tRNA-Phe(GAA), unlabeled, which Ki [2] is on record?
A: 197 nM

B1: truncated TSEN15–34 complex (TSEN15 residues 23–170 and TSEN34 residues 208–310) (complex, human)
chain 1: GFGDGGGAPSWAPEDAWMGTHPKYLEMMELDIGDATQVYVAFLVYLDLMESKSWHEVNCVGLPELQLICLVGTEIEGEGLQTVVPTPITASLSHNRIREILKASRKLQGDPDLPMSFTLAIVESDSTIVYYKLTDGFMLPDPQNISLR
chain 2: DWPHAGRPAHELRYSIYRDLWERGFFLSAAGKFGGDFLVYPGDPLRFHAHYIAQCWAPEDTIPLQDLVAAGRLGTSVRKTLLLCSPQPDGKVVYTSLQWASLQ
notes: human TSEN15, UniProtKB Q8WW01, residues 23–170; The SEC-MALS methods speak only of 'TSEN15–34 complex'; also called minimal TSEN15–34 complex; source: Sf21 insect cells (baculovirus), co-expressed, purified (Ni-NTA, TEV, SEC); not shown: His10, N-terminal, cleaved
Q: B1 was tested. Which “stoichiometry N” value [3] did it give?
A: 2

B2: RNA kinase CLP1 (enzyme, human, UniProt Q92989 1-425, looked up)
chain: MGEEANDDKKPTTKFELERETELRFEVEASQSVQLELLTGMAEIFGTELTRNKKFTFDAGAKVAVFTWHGCSVQLSGRTEVAYVSKDTPMLLYLNTHTALEQMRRQAEKEEERGPRVMVVGPTDVGKSTVCRLLLNYAVRLGRRPTYVELDVGQGSVSIPGTMGALYIERPADVEEGFSIQAPLVYHFGSTTPGTNIKLYNKITSRLADVFNQRCEVNRRASVSGCVINTCGWVKGSGYQALVHAASAFEVDVVVVLDQERLYNELKRDLPHFVRTVLLPKSGGVVERSKDFRRECRDERIREYFYGFRGCFYPHAFNVKFSDVKIYKVGAPTIPDSCLPLGMSQEDNQLKLVPVTPGRDMVHHLLSVSTAEGTEENLSETSVAGFIVVTSVDLEHQVFTVLSPAPRPLPKNFLLIMDIRFMDLK
notes: human CLP1, open reading frame, UniProtKB Q92989; source: Sf21 insect cells (baculovirus), co-expressed with the four TSEN subunits, purified (Ni-NTA, heparin, TEV, SEC); not shown: His6, N-terminal, cleaved
Q: How did the “stoichiometry N” value [4] turn out when B2 was run?
A: 1 and 2
